13 molecules from US20250019457A1 (IBIO, published 2025) can be followed below.

The target of test [1] is T1, human TROP2 (purified recombinant antigen, Acro Biosystems Cat #TR2-H5223) (human, UniProt P09758 27-274).
T1 construct: Bought recombinant protein; also called huTROP2
T1 sequence: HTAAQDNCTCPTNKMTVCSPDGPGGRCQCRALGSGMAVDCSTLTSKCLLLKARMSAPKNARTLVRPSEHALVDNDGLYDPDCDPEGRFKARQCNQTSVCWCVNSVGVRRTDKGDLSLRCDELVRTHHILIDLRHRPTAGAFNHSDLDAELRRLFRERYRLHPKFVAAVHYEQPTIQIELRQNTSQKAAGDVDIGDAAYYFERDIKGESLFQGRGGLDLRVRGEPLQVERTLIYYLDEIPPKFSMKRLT
Nature of the test: SPR (Carterra LSA), antibody captured through human Fc, huTROP2 as analyte; KD plotted for each VH/VL combination.

For test [2], the target named is T2, human Trop2 on cells (FaDu cells, endogenous; ExpiCHO cells overexpressing human Trop2) (human, UniProt P09758 27-323).
T2 construct: Cell-surface form
T2 sequence: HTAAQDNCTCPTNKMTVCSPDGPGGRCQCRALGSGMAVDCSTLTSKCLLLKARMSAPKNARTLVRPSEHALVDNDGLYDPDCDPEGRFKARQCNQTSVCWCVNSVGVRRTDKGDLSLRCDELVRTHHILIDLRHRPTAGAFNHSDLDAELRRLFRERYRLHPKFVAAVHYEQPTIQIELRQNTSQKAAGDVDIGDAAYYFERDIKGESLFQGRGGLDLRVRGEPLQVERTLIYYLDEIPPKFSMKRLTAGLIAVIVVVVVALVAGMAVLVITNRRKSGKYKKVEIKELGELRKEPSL
The test can be described thus: flow cytometry on FaDu cells (endogenous human Trop2); average of n=1-3 experiments. On the technique in general: A flow cytometer gives signals particle by particle.

For test [3], the target named is T3, human EpCAM (purified recombinant antigen, Acro Biosystems Cat #EPM-H5223) (human, UniProt P16422 24-265).
T3 construct: Bought recombinant protein
T3 sequence: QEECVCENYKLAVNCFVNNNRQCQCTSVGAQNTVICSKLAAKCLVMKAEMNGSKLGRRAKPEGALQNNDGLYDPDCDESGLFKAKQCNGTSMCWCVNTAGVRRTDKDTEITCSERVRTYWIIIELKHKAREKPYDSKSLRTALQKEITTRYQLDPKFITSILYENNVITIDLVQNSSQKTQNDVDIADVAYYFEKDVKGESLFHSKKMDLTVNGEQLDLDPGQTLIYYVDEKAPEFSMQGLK
The test can be described thus: SPR, Carterra LSA; antibody captured on anti-human IgG, antigen injected.

The target of test [4] is T4, cynomolgus/rhesus TROP2 (purified recombinant antigen, Acro Biosystems Cat #TR2-R52H3) (cynomolgus/rhesus, UniProt P09758 27-274 (human entry)).
T4 construct: Bought recombinant protein; also called cyTROP2; cyno/rhesus TROP2
T4 chain: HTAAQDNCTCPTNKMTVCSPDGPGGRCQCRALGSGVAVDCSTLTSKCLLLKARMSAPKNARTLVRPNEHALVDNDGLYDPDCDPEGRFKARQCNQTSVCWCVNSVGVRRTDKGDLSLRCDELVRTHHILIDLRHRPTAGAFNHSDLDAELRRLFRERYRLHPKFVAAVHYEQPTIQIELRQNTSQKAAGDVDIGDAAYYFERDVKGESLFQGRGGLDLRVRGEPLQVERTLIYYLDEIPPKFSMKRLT
The test can be described thus: SPR, Carterra LSA; antibody captured on anti-human IgG, antigen injected; 1:1 fit. (SPR reads the build-up and loss of mass on a sensor chip optically.)

For test [5], the target named is T1, human TROP2 (purified recombinant …). Described as above.
Test [6] addresses T5, mouse TROP2 (purified recombinant antigen, Acro Biosystems Cat #TR2-M52H6) (mouse, UniProt Q8BGV3 25-270).
T5 construct: Bought recombinant protein; also called msTROP2
T5 sequence: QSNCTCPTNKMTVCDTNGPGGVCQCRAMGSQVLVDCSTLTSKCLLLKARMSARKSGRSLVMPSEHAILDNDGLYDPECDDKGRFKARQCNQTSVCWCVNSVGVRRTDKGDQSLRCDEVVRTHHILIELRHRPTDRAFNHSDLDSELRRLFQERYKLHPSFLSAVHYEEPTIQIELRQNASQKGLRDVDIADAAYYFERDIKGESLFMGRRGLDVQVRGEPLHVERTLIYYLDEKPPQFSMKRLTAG
The description is as above.

The target in test [7] is T5, mouse TROP2 (purified recombinant …). Nature of the test: SPR, Carterra LSA; ratio of KD values, reference huTROP2.
Test [8] addresses T1, human TROP2 (purified recombinant …). The test can be described thus: SPR, Carterra LSA; antibody captured on anti-human IgG, antigen injected; 1:1 fit. This is another data set of the same source.

Where two headings read alike, the source gives them in different places.

B1: 589-VH_2 + 589-VL_1 (antibody, V domains shown)
VH: QVQLLESGGGLVKPGGSLRLSCAASGFDFIDYDMFWIRQAPGKGLEWVGVINRSGSYTNYAPAVKGRATISRDNAKNSMYLQMNSLRAEDTAVYYCARGACTHCWDADSAGYIDAWGQGTLVTVSS
VL: SYELTQPPSVSVSPGQTASITCSGSSGSYGWYQQKPGQSPVLVIYSSDKRPSGIPERFSGSNSGNTATLTISGTQAMDEADYYCGGYDGSTDVGIFGGGTKLTVL
With B1, the binding result in test [1] is reported as “binds”.

B2: 589-VH_5 + 589-VL_1 (antibody, V domains shown)
VH: AVTLDESGGGLQTPGGGLSLVCKASGFDFIDYDMFWVRQAPGKGLEWVGVINRSGSYTNYAPAVKGRATISRDNGQSTMRLQLNNLRAEDTGTYYCARGACTHCWDADSAGYIDAWGHGTEVIVSS
VL: SYELTQPPSVSVSPGQTASITCSGSSGSYGWYQQKPGQSPVLVIYSSDKRPSGIPERFSGSNSGNTATLTISGTQAMDEADYYCGGYDGSTDVGIFGGGTKLTVL
notes: parental VH with humanized VL
As to B2, the binding result in test [1] is reported as “binds”.

B3: 589-VH_2 + 589-VL_4 (antibody, V domains shown)
VH: QVQLLESGGGLVKPGGSLRLSCAASGFDFIDYDMFWIRQAPGKGLEWVGVINRSGSYTNYAPAVKGRATISRDNAKNSMYLQMNSLRAEDTAVYYCARGACTHCWDADSAGYIDAWGQGTLVTVSS
VL: ALALTQPSSVSANPGGTVKITCSGSSGSYGWHQQKSPGSAPVTVIYSSDKRPSDIPSRFSGALSGSTATLTITGVRAEDEAVYYCGGYDGSTDVGIFGAGTTLTVL
As for B3, in test [1], the binding result was “binds”.

B4: 589-VH_3 + 589-VL_4 (antibody, V domains shown)
VH: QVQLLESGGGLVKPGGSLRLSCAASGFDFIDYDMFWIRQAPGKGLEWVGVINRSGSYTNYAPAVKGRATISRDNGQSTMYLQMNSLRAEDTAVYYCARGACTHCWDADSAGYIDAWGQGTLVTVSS
VL: ALALTQPSSVSANPGGTVKITCSGSSGSYGWHQQKSPGSAPVTVIYSSDKRPSDIPSRFSGALSGSTATLTITGVRAEDEAVYYCGGYDGSTDVGIFGAGTTLTVL
B4: the binding result in test [1] is listed as “binds”.

B5: 589-VH_3 + 589-VL_2 (antibody, V domains shown)
VH: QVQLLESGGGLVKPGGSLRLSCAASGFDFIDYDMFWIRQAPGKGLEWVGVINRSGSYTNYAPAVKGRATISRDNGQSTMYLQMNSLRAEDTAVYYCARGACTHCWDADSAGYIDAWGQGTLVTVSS
VL: SLELTQPPSVSVSPGQTASITCSGSSGSYGWHQQKPGQSPVTVIYSSDKRPSGIPERFSGSSSGSTATLTISGTQAMDEADYYCGGYDGSTDVGIFGGGTKLTVL
As to B5, the binding result in test [1] is “binds”.

B6: 589-VH_3 + 589-VL_1 (antibody, V domains shown)
VH: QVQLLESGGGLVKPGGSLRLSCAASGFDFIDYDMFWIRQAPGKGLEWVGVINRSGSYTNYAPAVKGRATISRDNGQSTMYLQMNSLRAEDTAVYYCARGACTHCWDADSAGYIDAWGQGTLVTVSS
VL: SYELTQPPSVSVSPGQTASITCSGSSGSYGWYQQKPGQSPVLVIYSSDKRPSGIPERFSGSNSGNTATLTISGTQAMDEADYYCGGYDGSTDVGIFGGGTKLTVL
On to B6, for which the binding result in test [1] is given as “binds”.

B7: 589-VH_5 + 589-VL_2 (antibody, V domains shown)
VH: AVTLDESGGGLQTPGGGLSLVCKASGFDFIDYDMFWVRQAPGKGLEWVGVINRSGSYTNYAPAVKGRATISRDNGQSTMRLQLNNLRAEDTGTYYCARGACTHCWDADSAGYIDAWGHGTEVIVSS
VL: SLELTQPPSVSVSPGQTASITCSGSSGSYGWHQQKPGQSPVTVIYSSDKRPSGIPERFSGSSSGSTATLTISGTQAMDEADYYCGGYDGSTDVGIFGGGTKLTVL
notes: parental VH with humanized VL
On to B7, for which the binding result in test [1] is listed as “binds”.

B8: 589-VH_1 + 589-VL_4 (antibody, V domains shown)
VH: QVQLLESGGGLVKPGGSLRLSCAASGFTFSDYDMFWIRQAPGKGLEWVSVINRSGSYTNYAPAVKGRFTISRDNAKNSLYLQMNSLRAEDTAVYYCARGACTHCWDADSAGYIDAWGQGTLVTVSS
VL: ALALTQPSSVSANPGGTVKITCSGSSGSYGWHQQKSPGSAPVTVIYSSDKRPSDIPSRFSGALSGSTATLTITGVRAEDEAVYYCGGYDGSTDVGIFGAGTTLTVL
As to B8, in test [1], the binding result was “binds”.

B9: 589-VH_2 + 589-VL_2 (antibody, V domains shown)
VH: QVQLLESGGGLVKPGGSLRLSCAASGFDFIDYDMFWIRQAPGKGLEWVGVINRSGSYTNYAPAVKGRATISRDNAKNSMYLQMNSLRAEDTAVYYCARGACTHCWDADSAGYIDAWGQGTLVTVSS
VL: SLELTQPPSVSVSPGQTASITCSGSSGSYGWHQQKPGQSPVTVIYSSDKRPSGIPERFSGSSSGSTATLTISGTQAMDEADYYCGGYDGSTDVGIFGGGTKLTVL
notes: also called SD-861408
With B9, the binding result in test [1] is “binds”.

B10: 589-VH_1 + 589-VL_1 (antibody, V domains shown)
VH: QVQLLESGGGLVKPGGSLRLSCAASGFTFSDYDMFWIRQAPGKGLEWVSVINRSGSYTNYAPAVKGRFTISRDNAKNSLYLQMNSLRAEDTAVYYCARGACTHCWDADSAGYIDAWGQGTLVTVSS
VL: SYELTQPPSVSVSPGQTASITCSGSSGSYGWYQQKPGQSPVLVIYSSDKRPSGIPERFSGSNSGNTATLTISGTQAMDEADYYCGGYDGSTDVGIFGGGTKLTVL
For the molecule B10, the binding result in test [1] was “binds”.

B11: 589-VH_1 + 589-VL_2 (antibody, V domains shown)
VH: QVQLLESGGGLVKPGGSLRLSCAASGFTFSDYDMFWIRQAPGKGLEWVSVINRSGSYTNYAPAVKGRFTISRDNAKNSLYLQMNSLRAEDTAVYYCARGACTHCWDADSAGYIDAWGQGTLVTVSS
VL: SLELTQPPSVSVSPGQTASITCSGSSGSYGWHQQKPGQSPVTVIYSSDKRPSGIPERFSGSSSGSTATLTISGTQAMDEADYYCGGYDGSTDVGIFGGGTKLTVL
Consider B11, for which, in test [1], the binding result is reported as “binds”.

B12: SD-394517 (antibody, V domains shown)
VH: AVTLDESGGGLQTPGGALSLVCKGSGFTFSSYAMGWVRQAPGKGLEYVAAISSGSSTGYGAAVKGRATISRDTGQSTVRLQLNNLRAEDTATYYCAKSGYGGSASYVSDIDAWGHGTEVIVSS
VL: ALALTQPSSVSANPGETVEITCSGGGDYYGTYYYGWYQQKAPGSAPVTVIYDNTKRPSNIPSRFSGSTSGSTNTLTITGVQADDEAVYYCGSYDSSAGIFGAGTTLTVL
notes: Chicken/human chimera
Consider B12, for which the EC50 in test [2] came to 2.04 nM. Further, the binding result in test [3] is reported as “no binding (tested: 1 µM top concentration)”. The Kd in test [4] was 0.92 nM; in test [5], 0.76 nM; in test [6], 1.18 nM; in test [8], 0.76 nM. In test [7], the “Fold difference in affinity (huTROP2:msTROP2)” value worked out at 1.5 fold. Besides, in test [8], the koff came to 0.000303 s⁻¹. The kon in test [8] was 396000 M⁻¹ s⁻¹.

B13: SD-457798 (antibody, V domains shown)
VH: AVTLDESGGGLQTPGGALSLVCKGSGFTFSSYAMGWVRQAPGKGLEYVAAISSGSSTGYGAAVKGRATISKDTGQSTVRLQLNNLRAEDTATYYCAKSGYGGSASYVSDIDAWGHGTEVIVSS
VL: ALALTQPSSVSANPGETVEITCSGGGDYYGTYYYGWYQQKAPGSAPVTVIYDNTKRPSNIPSRFSGSTSGSTNTLTITGVQADDEAIYFCGSYKSNTFGAGTTLTVL
notes: Chicken/human chimera
B13 registered an EC50 in test [2] of 1.06 nM. Besides, the binding result in test [3] was “no binding (tested: 1 µM top concentration)”. Also, the Kd in test [4] was determined as 0.96 nM; in test [5] it was 0.64 nM; in test [6], 0.34 nM; in test [8], 0.64 nM. In addition, in test [7], the “Fold difference in affinity (huTROP2:msTROP2)” value worked out at 0.5 fold. Besides, the koff in test [8] was 0.000259 s⁻¹. In test [8], the kon is 403000 M⁻¹ s⁻¹.

The EC50 is the concentration at which the effect is half-maximal. A high value points to a less potent agent. One may read the Kd as a measure of binding affinity in units of concentration. As a reminder, the koff is a measure of how fast the partners let go of each other. One may read the kon as the rate constant with which the complex forms.
